In patent US20200055919A1 (ACCELERON PHARMA, published 2020):
Numbering of substitutions follows the chain as printed. Numbers in names are those of the source.

Columns and labels:
activin A [1] = target: T1, activin A (UniProt P08476 311-426); assay: SPR (Biacore), 37 C
T1 sequence (looked up): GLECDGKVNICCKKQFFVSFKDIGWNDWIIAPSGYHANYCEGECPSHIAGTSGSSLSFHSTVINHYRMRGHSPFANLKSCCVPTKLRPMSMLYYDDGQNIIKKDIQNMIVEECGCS
Procedure: (§1) A Biacore™-based binding assay was used to compare the ligand binding kinetics of an ActRIIB-Fc:ActRIIB(L79E)-Fc heterodimer with those of unmodified ActRIIB-Fc homodimer. Fusion proteins were captured onto the system using an anti-Fc antibody. Ligands were then injected and allowed to flow over the captured receptor protein at 37° C. Results are summarized in the table below, in which ligand off-rates (kd) most indicative of effective ligand traps are denoted in bold.

BMP10 [2] = target: T2, BMP10 (UniProt O95393 317-424); assay: SPR (Biacore), 37 C
T2 sequence (looked up): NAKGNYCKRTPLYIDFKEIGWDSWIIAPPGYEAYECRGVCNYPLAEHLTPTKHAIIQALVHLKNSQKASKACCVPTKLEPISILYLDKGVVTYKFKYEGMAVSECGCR
Procedure: as §1

activin A [3] = target: T1, activin A; assay: SPR (Biacore), Fc fusion captured by anti-Fc antibody, ligand injected, 37 C
Procedure: as §1

activin B = target: T3, activin B (UniProt P09529 293-407); assay: as above
T3 sequence (looked up): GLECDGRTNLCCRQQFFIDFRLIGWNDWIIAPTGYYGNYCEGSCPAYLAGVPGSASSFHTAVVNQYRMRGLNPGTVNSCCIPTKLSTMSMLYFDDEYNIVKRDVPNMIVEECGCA
Procedure: as §1

GDF3 = target: T4, GDF3 (UniProt Q9NR23 251-364); assay: as above
T4 sequence (looked up): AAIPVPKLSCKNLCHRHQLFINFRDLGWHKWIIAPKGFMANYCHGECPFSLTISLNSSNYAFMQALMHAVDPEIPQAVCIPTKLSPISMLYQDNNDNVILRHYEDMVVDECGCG
Procedure: as §1

GDF8 = target: T5, GDF8 (UniProt O14793 267-375); assay: as above
T5 construct: also called myostatin
T5 sequence (looked up): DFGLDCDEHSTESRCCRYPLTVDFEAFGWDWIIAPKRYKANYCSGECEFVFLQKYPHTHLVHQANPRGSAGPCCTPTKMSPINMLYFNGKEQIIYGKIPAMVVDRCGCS
Procedure: as §1

GDF11 = target: T6, GDF11 (UniProt O95390 299-407); assay: as above
T6 construct: also called BMP11
T6 sequence (looked up): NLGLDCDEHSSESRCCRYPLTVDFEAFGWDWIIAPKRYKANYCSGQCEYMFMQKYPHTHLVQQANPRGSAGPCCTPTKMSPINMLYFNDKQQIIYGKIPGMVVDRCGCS
Procedure: as §1

BMP6 = target: T7, BMP6 (UniProt P22004 382-513, limits assumed); assay: as above
T7 sequence (looked up): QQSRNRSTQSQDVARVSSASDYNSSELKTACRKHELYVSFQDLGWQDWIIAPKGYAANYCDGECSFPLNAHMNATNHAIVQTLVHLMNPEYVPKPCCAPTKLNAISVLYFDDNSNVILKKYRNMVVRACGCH
Procedure: as §1

BMP9 = target: T8, BMP9 (UniProt Q9UK05 320-429); assay: as above
T8 sequence (looked up): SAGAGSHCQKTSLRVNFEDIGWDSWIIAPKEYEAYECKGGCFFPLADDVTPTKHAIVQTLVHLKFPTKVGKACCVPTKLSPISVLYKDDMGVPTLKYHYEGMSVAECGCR
Procedure: as §1

BMP10 [4] = target: T2, BMP10; assay: as above
Procedure: as §1

- fold faster off-rate compared to ActRIIB-Fc homodimer (activin A [1]): ~10 fold
- fold faster off-rate compared to ActRIIB-Fc homodimer (BMP10 [2]): ~10 fold
- Kd (activin A [3]): 0.17 nM
- koff (activin A [3]): 0.0015 s⁻¹
- kon (activin A [3]): 8.8e+06 M⁻¹ s⁻¹
- Kd (activin B): 0.025 nM
- koff (activin B): 0.00021 s⁻¹
- kon (activin B): 8.3e+06 M⁻¹ s⁻¹
- Kd (GDF3): 10 nM
- koff (GDF3): 0.0059 s⁻¹
- kon (GDF3): 580000 M⁻¹ s⁻¹
- Kd (GDF8): 0.15 nM
- koff (GDF8): 0.0005 s⁻¹
- kon (GDF8): 3.4e+06 M⁻¹ s⁻¹
- Kd (GDF11): 0.009 nM
- koff (GDF11): 0.00036 s⁻¹
- kon (GDF11): 4e+07 M⁻¹ s⁻¹
- Kd (BMP6): 0.056 nM
- koff (BMP6): 0.018 s⁻¹
- kon (BMP6): 3.3e+08 M⁻¹ s⁻¹
- Kd (BMP9): > 2.8 nM
- Kd (BMP10 [4]): 0.042 nM
- koff (BMP10 [4]): 0.002 s⁻¹
- kon (BMP10 [4]): 4.8e+07 M⁻¹ s⁻¹
B1: ActRIIB-Fc:ActRIIB(L79E)-Fc heterodimer (Fc fusion)
chain 1: GRGEAETRECIYYNANWELERTNQSGLERCEGEQDKRLHCYASWRNSSGTIELVKKGCWEDDFNCYDRQECVATEENPQVYFCCCEGNFCNERFTHLPEAGGPEVTYEPPPTAPT
chain 2: B1 chain 1 with E60L
notes: also called ActRIIB-Fc:ActRIIB(L79E)-Fc heteromer; not shown: linker and engineered G1Fc; linker and complementary engineered G1Fc
